{"source": "patent US20210403595", "about": "(published 2021)", "key": {"[1]": {"biological_target": "human CD3 epsilon/delta heterodimer, Fc-tagged (human)", "sequence (chain, as listed by the source mutant, chain 1 of 2)": "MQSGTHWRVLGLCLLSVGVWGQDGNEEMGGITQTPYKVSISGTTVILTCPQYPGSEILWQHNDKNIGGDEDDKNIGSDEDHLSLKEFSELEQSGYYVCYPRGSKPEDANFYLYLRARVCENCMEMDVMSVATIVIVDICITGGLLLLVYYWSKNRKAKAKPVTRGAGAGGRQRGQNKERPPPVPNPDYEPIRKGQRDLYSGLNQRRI", "sequence (chain, as listed by the source mutant, chain 2 of 2)": "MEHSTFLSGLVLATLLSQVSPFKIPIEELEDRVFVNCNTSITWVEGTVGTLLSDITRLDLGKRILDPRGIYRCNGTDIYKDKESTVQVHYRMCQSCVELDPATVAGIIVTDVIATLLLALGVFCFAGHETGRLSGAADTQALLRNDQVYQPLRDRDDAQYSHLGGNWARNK", "test": "SPR, 25C antigen-capture"}, "[2]": {"biological_target": "human CD3 epsilon/delta heterodimer, Fc-tagged (human)", "test": "SPR, 25C antibody-capture"}, "[3]": {"biological_target": "human CD3 epsilon/delta heterodimer, Fc-tagged (human)", "test": "SPR, 25C antibody-capture", "remark": "listed apart in the source"}, "[4]": {"biological_target": "human CD3 epsilon/delta heterodimer, Fc-tagged (human)", "test": "SPR, 25C antigen-capture", "remark": "listed apart in the source"}, "[5]": {"biological_target": "human CD3 epsilon/delta heterodimer, Fc-tagged (human)", "test": "SPR, 25C antibody-capture", "remark": "listed apart in the source"}, "[6]": {"biological_target": "human CD3 on Jurkat cells (human)", "sequence (chain, as listed by the source, chain 1 of 2)": "as the sequence (chain, as listed by the source mutant, chain 1 of 2) above", "sequence (chain, as listed by the source, chain 2 of 2)": "as the sequence (chain, as listed by the source mutant, chain 2 of 2) above", "test": "FACS"}, "[7]": {"biological_target": "T1, cynomolgus CD3 on T cells (cynomolgus monkey)", "T1 chain": "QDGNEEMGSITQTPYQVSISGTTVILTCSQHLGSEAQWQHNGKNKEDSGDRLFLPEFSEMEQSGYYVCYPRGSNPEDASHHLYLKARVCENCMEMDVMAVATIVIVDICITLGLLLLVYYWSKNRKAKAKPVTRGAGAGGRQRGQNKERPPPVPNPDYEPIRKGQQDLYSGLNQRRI", "test": "FACS"}, "[8]": {"biological_target": "human CD3 on Jurkat cells (human)", "test": "FACS", "remark": "listed apart in the source"}, "[9]": {"biological_target": "human CD3 on Jurkat cells (human)", "test": "FACS", "remark": "listed apart in the source"}, "[10]": {"biological_target": "human PSMA, N-terminal 6xHis (soluble) (human)", "sequence (A4UU12 whole entry)": "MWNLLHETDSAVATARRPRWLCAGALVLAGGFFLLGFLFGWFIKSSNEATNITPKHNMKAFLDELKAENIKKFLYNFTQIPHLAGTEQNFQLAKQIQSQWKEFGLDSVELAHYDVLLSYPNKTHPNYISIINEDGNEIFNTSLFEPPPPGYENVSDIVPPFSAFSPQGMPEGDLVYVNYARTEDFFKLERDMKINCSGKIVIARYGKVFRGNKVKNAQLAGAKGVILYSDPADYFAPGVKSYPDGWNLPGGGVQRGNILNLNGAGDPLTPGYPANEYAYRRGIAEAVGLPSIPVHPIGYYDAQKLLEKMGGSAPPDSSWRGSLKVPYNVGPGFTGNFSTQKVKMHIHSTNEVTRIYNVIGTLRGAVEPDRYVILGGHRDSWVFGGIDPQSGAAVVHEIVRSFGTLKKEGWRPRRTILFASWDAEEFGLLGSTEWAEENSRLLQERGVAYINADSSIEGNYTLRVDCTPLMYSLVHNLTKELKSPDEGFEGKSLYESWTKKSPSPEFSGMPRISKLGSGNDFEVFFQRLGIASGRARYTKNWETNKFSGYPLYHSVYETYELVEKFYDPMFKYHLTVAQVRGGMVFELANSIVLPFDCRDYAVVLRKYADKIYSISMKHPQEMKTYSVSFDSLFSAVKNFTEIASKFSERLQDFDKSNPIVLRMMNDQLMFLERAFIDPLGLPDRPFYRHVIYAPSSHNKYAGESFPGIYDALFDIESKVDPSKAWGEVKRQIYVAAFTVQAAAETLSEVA", "test": "SPR, 37C"}, "[11]": {"biological_target": "human CD3 epsilon/delta heterodimer, Fc-tagged (human)", "test": "SPR, 25C antibody-capture", "remark": "listed apart in the source"}, "[12]": {"biological_target": "T1, cynomolgus CD3 on T cells", "test": "FACS"}, "[13]": {"biological_target": "human CD3 epsilon/delta heterodimer, Fc-tagged (human)", "test": "SPR, 37C"}, "[14]": {"biological_target": "human CD3 on Jurkat cells (human)", "test": "FACS", "remark": "listed apart in the source"}}, "note": "Like-named read-outs stand apart in the source and are kept apart here.", "data": [{"binder": "H1H7250P (antibody, V domains shown) VH: QVQLVESGGGLVQPGRSLRLSCAASGFTFDDYTMHWVRQGPGKGLEWVSDIGWNSNTKGYADSVKGRFTISRDNAKNSLYLQMNSLRPEDTALYFCVKDKSGYGKFFIGLDVWGQGTMVTVSS VL: not shown", "values": [{"measurement": "Kd", "setting": "[1]", "value": 0.82, "unit": "nM"}]}, {"binder": "H1H7241P (antibody, V domains shown) VH: EVQLVESGGGLVQPGRSLRLSCAASGFTFADYTMHWVRQGPGKGLEWVSDIGWNSNTIGYADSVKGRFAISRDNAKNSLYLQMNSLRPEDTALYYCVKDKSGYGKFQYGLDVWGQGTTVTVSS VL: not shown", "values": [{"measurement": "Kd", "setting": "[2]", "value": 22, "unit": "nM"}]}, {"binder": "H1H5752P (antibody, V domains shown) VH: QVQLVESGGGVVQPGRSLRPSCAASGFSFRDYGMHWVRQAPGKGLEWMAHIWYNGKNKYYADSVKGRFTISRDNSKNTLYLQMNSLRPEDTAVYYCARDGVSARGTPFDYWGQGTLVTVSS VL: ETTLTQSPAFMSAAPGDKVSISCIASQYIDDDVNWYQQKPGETAIFIIQEASTLVPGISPRFSGSGYGTHFTLTINNIDSEDAAFYFCLQHDNFPYTFGQGTKLEIK", "values": [{"measurement": "binding result", "setting": "[3]", "value": "no binding"}]}, {"binder": "H2M2705N (antibody, V domains shown) VH: QVQLVESGGGVVQPGRSLRLACVASGFTFRSYGMHWVRQAPGKGLQWVAMIYYDGKNKYYADSVRGRFTISRDNSKNTLYLQMNNLRVEDTAMYFCARGPGYNWLDPWGQGTLVTVSS VL: EIVMTQSPATLSVSPGERATLSCRASQRISSNLAWYQQKPGQAPRLLIYGASTRATGSPARFSGSGSGTDFTLTISSLQSEDVAVYYCQQHHNWPLTFGGGTKVEIK", "values": [{"measurement": "Kd", "setting": "[4]", "value": 0.14, "unit": "nM"}, {"measurement": "Kd", "setting": "[5]", "value": 13.7, "unit": "nM"}, {"measurement": "EC50", "setting": "[6]", "value": 0.296, "unit": "nM"}]}, {"binder": "H1H2690N (antibody, V domains shown) VH: EVQLVESGGGLVQPGRSLRLSCAASGFTFDDYTMHWVRQAPGKGLEWVSGISWNSGSIGYADSVKGRFTISRDNAKKSLYLQMNSLRAEDTALYYCAKDNSGYGHYYYGMDVWGQGTTVTVAS VL: EIVMTQSPATLSVSPGERATLSCRASQSVSSNLAWYQQKPGQAPRLLIYGASTRATGIPARFSGSGSGTEFTLTISSLQSEDFAVYYCQHYINWPLTFGGGTKVEIK", "values": [{"measurement": "EC50", "setting": "[7]", "value": 5.66, "unit": "nM"}]}, {"binder": "H1H7194P (antibody, V domains shown) VH: EVQLVESGGGLVQPGRSLRLSCAASGFTFGDYTMHWVRQAPGKGLEWVSDISWNSGSKDYADSVKGRFTISRDNAKNSLYLQMNSLRTEDTAFYYCAKDSRGYGLYYHLGLDVWGQGTTVTVSS VL: not shown", "values": [{"measurement": "EC50", "setting": "[8]", "value": 1.5, "unit": "nM"}, {"measurement": "Kd", "setting": "[2]", "value": 13, "unit": "nM"}]}, {"binder": "H2M3547N (antibody, V domains shown) VH: EAQLVESGGGLVQPGRSLRLSCTTSGFTFDDYTMHWVRQAPGKGLEWISDISWNGGTKGYADSVKGRFTISRDNAKNSLYLQMDSLRGEDTALYYCVKDKSGYGHFYFGLDVWGQGTTVTVSS VL: DIQMTQSPSSLTASVGDRVTFTCRASQSISRHLSWYQQKPGKAPKLLIYAASSLESGVPSRFSGSGSGTDFTLTISSLHPEDFATYYCQQSYSNPPITFGQGTRLEIK", "values": [{"measurement": "Kd", "setting": "[4]", "value": 0.0215, "unit": "nM"}]}, {"binder": "H1H5782P (antibody, V domains shown) VH: EVQLVESGGGLVQPGRSLRLSCAASGFTFDDYAMHWVRQAPGKGLEWVSGISWNSGSKDYADSVKGRFTISRDNTRNSLFLQMNSLRTEDTALYYCAKDKSGYGSFYYGMDVWGQGTTVTVSS VL: not shown", "values": [{"measurement": "binding result", "setting": "[3]", "value": "no binding"}, {"measurement": "binding result", "setting": "[9]", "value": "no binding"}]}, {"binder": "H1M11453N (antibody, V domains shown) VH: EFQVVESGGGLVKPGGSLRLSCVVSGFTFSNYNMNWVRQAPAKGLEWVSSISTGSSDIYYADSVKGRFTISRDNAKNSLYLQMNSLRVEDTAVYYCARDIIGTTRDWGQGTLVTVSS VL: DIQMTQSPSSLSASVGDSVTITCRASQSINNYLNWYQQKPGKAPKLLIYTASSLLSGVPSRFSGSGSGTDFTLTISGLHPEDFATYFCQQSFSTPPITFGQGTRLDIK", "values": [{"measurement": "Kd", "setting": "[10]", "value": 1.93, "unit": "nM"}]}, {"binder": "H2M11899N (antibody, V domains shown) VH: QVQLVESGGGVVQPGRSLRLSCAASGFTFSSYDIHWVRQAPGKGLEWVSVIWYDGSNKYYADSVKGRFTISRDNSKNTLYLQMNSLRAEDTAVYYCARTVAARNYDYYVMDVWGQGTTVTVSS VL: DIQMTQSPSSLSASVGDSVTITCRASQSINNYLNWYQQKPGKAPKLLIYTASSLLSGVPSRFSGSGSGTDFTLTISGLHPEDFATYFCQQSFSTPPITFGQGTRLDIK", "values": [{"measurement": "Kd", "setting": "[10]", "value": 1.76, "unit": "nM"}]}, {"binder": "H1xH7221G3 (antibody, V domains shown) VH: EVQLVESGGGLVQPGRSLRLSCAASGFTFDDYSMHWVRQAPGKGLEWVSGISWNSGSIGYADSVKGRFTISRDNAKNSLYLQMNSLRAEDTALYYCAKDGSGYGYFYYYGMDVWGQGTTVTVSS VL: not shown", "values": [{"measurement": "binding result", "setting": "[11]", "value": "no binding"}]}, {"binder": "H1H7232P (antibody, V domains shown) VH: EVQLVESGGGLVHPGRSLRLSCAASGFTFDDYTMHWVRQAPGKGLEWVSDISWNSGSRGYADSVKGRFTISRDNAENSLYLQMNSLRAEDTALYYCAKDKSGYGHYYYYAMDVWGQGTTVTVSS VL: not shown", "values": [{"measurement": "EC50", "setting": "[8]", "value": 1.5, "unit": "nM"}, {"measurement": "Kd", "setting": "[1]", "value": 10, "unit": "nM"}, {"measurement": "Kd", "setting": "[2]", "value": 220, "unit": "nM"}]}, {"binder": "H1xH7221G5 (antibody, V domains shown) VH: EVQLVESGGGLVQPGRSLRLSCAASGFTFDDYSMHWVRQAPGKGLEWVSGISWNSGSIGYADSVKGRFTISRDNAKNSLYLQMNSLRAEDTALYYCAKDGSGYGKFYYYGMDVWGQGTTVTVSS VL: not shown", "values": [{"measurement": "binding result", "setting": "[11]", "value": "no binding"}]}, {"binder": "BSPSMA/CD3-300 CD3 arm (antibody, V domains shown) VH: EVQLVESGGGLVQPGRSLRLSCAASGFTFDDYSMHWVRQAPGKGLEWVSGISWNSGSIGYADSVKGRFTISRDNAKNSLYLQMNSLRAEDTALYYCAKDGSGYGYFYYYGMDVWGQGTTVTVSS VL: not shown", "values": [{"measurement": "binding result", "setting": "[12]", "value": "no binding"}, {"measurement": "binding result", "setting": "[13]", "value": "no binding"}, {"measurement": "binding result", "setting": "[14]", "value": "no binding"}]}, {"binder": "H1H7221P (antibody, V domains shown) VH: EVQLVESGGGLVQPGRSLRLSCVASGFTFDDYSMHWVRQAPGKGLEWVSGISWNSGSKDYADSVKGRFTISRDNAKNSLYLQMNSLRAEDTALYYCAKYGSGYGKFYHYGLDVWGQGTTVTVSS VL: not shown", "values": [{"measurement": "EC50", "setting": "[8]", "value": 1.4, "unit": "nM"}]}, {"binder": "BSPSMA/CD3-200 CD3 arm (antibody, V domains shown) VH: EVQLVESGGGLVQPGRSLRLSCAASGFTFDDYAMHWVRQAPGKGLEWVSGISWNSGSIGYADSVKGRFTISRDNAKNSLYLQMNSLRAEDTALYYCAKDGSGYGYFYYYGMDVWGQGTTVTVSS VL: not shown", "values": [{"measurement": "binding result", "setting": "[12]", "value": "no binding"}, {"measurement": "binding result", "setting": "[13]", "value": "no binding"}, {"measurement": "binding result", "setting": "[14]", "value": "no binding"}]}, {"binder": "BSPSMA/CD3-400 CD3 arm (antibody, V domains shown) VH: EVQLVESGGGLVQPGRSLRLSCAASGFTFDDYAMHWVRQAPGKGLEWVSGISWNSGSIGYADSVKGRFTISRDNAKNSLYLQMNSLRAEDTALYYCAKDGSGYGKFYYYGMDVWGQGTTVTVSS VL: not shown", "values": [{"measurement": "binding result", "setting": "[12]", "value": "no binding"}, {"measurement": "binding result", "setting": "[13]", "value": "no binding"}, {"measurement": "binding result", "setting": "[14]", "value": "no binding"}]}, {"binder": "H2M2776N (antibody, not fully specified; listing feature) chain 1: QVQLVESGGGVVQPGRSLRLSCAASGFTFRSFGMHWVRQAPGRGLEWVAMIYFDGKNKYYADSVRGRFTISRDNSKNTLYLEMSSLRAEDTAVYFCARGPGYNWLDPWGQGTLVTVSS chain 2: EIVMTQSPATLSVSPGERVILSCRASQSISRNLAWYQXKPGQAPRLLIYGATTRATGVPARFSGSGSGTEFTLTISSLQSEDFAVFYCQQYNNRPLTFGGGTEVEIK", "values": [{"measurement": "Kd", "setting": "[4]", "value": 0.14, "unit": "nM"}]}]}
